From the supplement of paper PMC9170038

Test system: MS2 coat protein
Experiment: apparent KD of MS2 coat protein; designed switch direction (-1 OFF switch, 1 ON switch): -1; higher = weaker reporter binding
How it was run: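 Each step of the titration lasted 0.8–1.5 h at the lowest concentration and 10–20 min at the highest. The protein, SNAP-549-labelled MS2 coat protein, went from 0.7 or 1.5 nM doubling to 3 µM over RNA switches transcribed on Illumina chips by stalled E. coli RNA polymerase. Normalised cluster fluorescence was curve-fitted, and the per-design median over clusters is given as apparent KD.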

[1] = input ligand: microRNA oligo, concentration not stated
[2] = Eterna round: R95, input ligand: FMN 200 uM
[3] = Eterna round: R95, input ligand: microRNA oligo, concentration not stated
[4] = Eterna round: R95, input ligand: none

Sequence | apparent KD of MS2 coat protein (input ligand: FMN 200 uM) | apparent KD of MS2 coat protein [1] | apparent KD of MS2 coat protein (input ligand: none) | apparent KD of MS2 coat protein [2] | apparent KD of MS2 coat protein [3] | apparent KD of MS2 coat protein [4]
GCACUCUUGUGAGGAUAUCGUUAAGGGACUUAACGAGAAGGUACAUGAGGAUCACCCAUGUGGAUCCUCCCGUUUGGAUCACUU [Eternabot solution 3] (Eterna round: R96, puzzle: Exclusion NG 1) | 177 nM | 103 nM | 112 nM | – | – | –
GCACUGACAGGAUAUACAUGAGGAUCACCCAUGUGACCCUUGGAGUACUCGCGUACUCGUAGAAGGGUCUGUGC [Omei Ex3 Model Bachelor's Dilema v37] (Eterna round: R97, puzzle: Exclusion 3) | 95.8 nM | – | 35.9 nM | – | – | –
GCACUGCGAGGAUAUACAUGAGGAUCACCCAUGUGUCGGCAGACAUGGUUAAUCUAAGGUAGAAGGCGCGUAAA [JR_Ex3_Sub004] (Eterna round: R97, puzzle: Exclusion 3) | 16.3 nM | – | 993 nM | – | – | –
GCAGAGGUAGUGAGGAUAUGCUCUACCUCGGUAGAGCAGAAGGCACAUGAGGAUCACCCAUGUGAUUCUUCUGC [Omei Ex4B B9] (Eterna round: R97, puzzle: Brourd's mod of Exclusion 4) | 15 nM | – | 13.2 nM | – | – | –
GCAGCAAAUUCCACUAAAACCACAUGAGGAUCACCCAUGUCUCAGGAUAUGGUCUGGAUUACAGGCCAGAAGGGAGAAAGCUGC [Eli exng3 - 056] (Eterna round: R96, puzzle: Exclusion NG 3) | 12.3 nM | 9.52 nM | 14.8 nM | – | – | –
GCAGCAACUCUAAUUAAAACCACAUGAGGAUCACCCAUGUCUCAGGAUAUGGUCUGGAUUACAGGCCAGAAGGGAGAAAGCUGC [Eli exng3 - 051] (Eterna round: R96, puzzle: Exclusion NG 3) | 15.9 nM | 14.9 nM | 17 nM | – | – | –
GCAGCAUAGAUAACAUACUGUUACAUGAGGAUCACCCAUGUACAGGAUAUGGUCUGGAUUACAGGCCAGAAGGGUACAAGCUGC [Eli exng3 - 021] (Eterna round: R96, puzzle: Exclusion NG 3) | 10.8 nM | 8.63 nM | 12.1 nM | – | – | –
GCAGCAUAUGUAGGAUAUCUGCACGUGUAGUGCAGAGAAGGACAUGAGGAUCACCCAUGUAAUUAAGAUCAAUUAUUAAGCUGC [ENG1/4-A3] (Eterna round: R96, puzzle: Exclusion NG 1) | 37.7 nM | 17.3 nM | 22.2 nM | – | – | –
GCAGCGUAUGUAGGAUAUCGGUCAGUUUCUGAUCGAGAAGGACAUGAGGAUCACCCAUGUAAAUUACCGUCUUUGACGGGCUGC [JL ENG1 3.68] (Eterna round: R96, puzzle: Exclusion NG 1) | 20.5 nM | 14.1 nM | 18.1 nM | – | – | –
GCAGCUAACACAGAUAUGUGCACAUGAGGAUCACCCAUGUCACAGGAUAUGGACUGGAUUACAGUCCAGAAGGGUGAAUGCUGC [Zipper Style 6] (Eterna round: R96, puzzle: Exclusion NG 3) | 10.2 nM | 7.97 nM | 14 nM | – | – | –
GCAGCUAAUCGAGGAUAUCAGCACGUGUAGUGCUGAGAAGGCGACAUGAGGAUCACCCAUGUGAUCAAUUAAUAUUAAUGCUGC [ENG1/11-A3] (Eterna round: R96, puzzle: Exclusion NG 1) | 893 nM | 308 nM | 414 nM | – | – | –
GCAGCUAAUGCAGGAUAUCAGCACGUGUAGUGCUGAGAAGGGCACAUGAGGAUCACCCAUGUGAUCAAUUAAUAUUAAUGCUGC [ENG1/11-B3] (Eterna round: R96, puzzle: Exclusion NG 1) | 328 nM | 16.2 nM | 20.5 nM | – | – | –
GCAGGAUAAGUGAGGAUAUACCUAUGGAUACAUAGGUAGAAGGCACAUGAGGAUCACCCAUGUUACUCGCCUGC [Fiskers BMX 4 - 75] (puzzle: Brourd's mod of Exclusion 4) | – | – | – | 41.7 nM | 12.9 nM | 10.9 nM
GCAGGAUAAGUGAGGAUAUACCUCUGGAUACAGAGGUAGAAGGCACAUGAGGAUCACCCAUGUCAUUCACCUGC [Fiskers BMX 4 - 77] (puzzle: Brourd's mod of Exclusion 4) | – | – | – | – | 14.4 nM | –
GCAGGUCAAGGAUAUACAUGAGGAUCACCCAUGUGAUUAGCAGUCCUCGGACUGCAAUGUAGAAGGUGACCUGC [E3/2-C2] (Eterna round: R97, puzzle: Exclusion 3) | 2140 nM | – | 329 nM | – | – | –
GCAGUAACAUGAGGAUCACCCAUGUGGAACUCGUGAAUAAGCGAGGAUAUCUCAAGAUAUCAAAGAGAGAAGGCGUACACUGCA [Qulege] (Eterna round: R96, puzzle: Exclusion NG 3) | 490 nM | 96.1 nM | 142 nM | – | – | –

Sequence | apparent KD of MS2 coat protein (input ligand: FMN 200 uM) | apparent KD of MS2 coat protein [1] | apparent KD of MS2 coat protein (input ligand: none) | apparent KD of MS2 coat protein [2] | apparent KD of MS2 coat protein [3] | apparent KD of MS2 coat protein [4]
GCAGUAUGAGUUAGGAUAUGAUGAUUUGAAAUGGGUCAGAAGGAACUUGAGGAUCACCCAAGUAAUGAAUUGGU [JR_BMEx4_Sub073] (Eterna round: R97, puzzle: Brourd's mod of Exclusion 4) | 94.6 nM | – | 52.7 nM | – | – | –
GCAGUGACAUGAGGAUCACCCAUGUGGAACUCGUGAAUAAGCGAGGAUAUCUCAAGAUAUCAAAGAGAGAAGGCGUACACUGCA [Diorso] (Eterna round: R96, puzzle: Exclusion NG 3) | 731 nM | 159 nM | 229 nM | – | – | –
GCAGUGCGAGGAUAUACAUGAGGAUCACCCAUGUGAGAAGAAUAAGUGAGGAAGAAAAGUAGAAGGCGCGUUGG [Mat - Exclusion 3 - Mod of Salish D68] (puzzle: Exclusion 3) | – | – | – | 71.8 nM | 47.4 nM | 54.6 nM
GCAUCGUAAGGAUAUCAGCCGGUGGUAUACCGAAACAGGGUUGAGAAGGUACAUGAGGAUCACCCAUGUGAUUU [Eternabot (L2) Solution 37] (Eterna round: R97, puzzle: Exclusion 4) | 203 nM | – | 58.6 nM | – | – | –
GCAUGCUUUUUGCUCGUUUACAUGAGGAUCACCCAUGUACAUGGGUGAGCCGCAUGUACAGAAAGGAAAACUUUUUG [Alacar Attempt 2] (Eterna round: R97, puzzle: Sensor, turn-off variant 1) | 21.1 nM | – | 24.7 nM | – | – | –
GCCAAUGUGGAGGAUAUCGACUUCGAAAGAAGUCGAGAAGGCCACACAUGAGGAUCACCCAUGUGAUGCCAGGC [Omei Ex6 H10] (Eterna round: R97, puzzle: Exclusion 6) | 216 nM | – | 189 nM | – | – | –
GCCAGAGCAGGAUAUUCAAAACCUCACAUGAGGAUCACCCAUGUGGCCGAAAGGCCGGGAGGAGAAGGGCUCUGGC [Fiskers Ex 5 - 1] (puzzle: Exclusion 5) | – | – | – | 49.8 nM | 13.3 nM | 15.8 nM
GCCAGAGCAGGAUAUUCAAUAUUCCACAUGAGGAUCACCCAUGUCCAGCGAAAGCUGGAGGGAGAAGGGCUCUGGC [Fiskers Ex 5 - 8] (puzzle: Exclusion 5) | – | – | – | 27.3 nM | 43.6 nM | 56.3 nM
GCCAGAGCAGGAUAUUGAAUAAUUCACAUGAGGAUCACCCAUGUCCAGCGAAAGCUGGAACGAGAAGGGCUCUGGC [Fiskers Ex 5 - 5] (puzzle: Exclusion 5) | – | – | – | 12.5 nM | 11.7 nM | 11.1 nM
GCCAGAGCAGGAUAUUUAUAUUAUCACAUGAGGAUCACCCAUGUCCAGCGAAAGCUGGAGGGAGAAGGGCUCUGGC [Fiskers Ex 5 - 25] (puzzle: Exclusion 5) | – | – | – | 121 nM | 190 nM | 250 nM
GCCAGAUCAGGAUAUCUAAUAUAUCACAUGAGGAUCACCCAUGUCCAGCGAAAGCUGGAGGGAGAAGGGAUCUGGC [Mat - Exclusion 5 - Eli mod - D102] (puzzle: Exclusion 5) | – | – | – | 39.8 nM | 79.8 nM | 48.2 nM
GCCAUGGGAGGAUAUACGUCAUAGGUUACCUCACGCUGGCGACAUGAGGAUCACCCAUGUAGAAGGCUCAGAUG [Eternabot (L2) Solution 12] (Eterna round: R97, puzzle: Exclusion 2) | 101 nM | – | 113 nM | – | – | –
GCCCGGCCUGUAGGAUAUGGUUCCGUUUCGGUUCCAGAAGGACACGAGGAUACAUGAGGAUCACCCAUGUGCUCGUCACCGGGC [salish99_ExNG1_r04_403] (Eterna round: R96, puzzle: Exclusion NG 1) | 8.67 nM | 8.6 nM | 11.3 nM | – | – | –
GCCCGGCGUGUAGGAUAUGGUUCCGUUUCGGUUCCAGAAGGACAUGAGGAUCACCCAUGUGCCUGUCGUCGGUCGUCACCGGGC [salish99_ExNG1_r04_401] (Eterna round: R96, puzzle: Exclusion NG 1) | 11.1 nM | 9.87 nM | 12.4 nM | – | – | –
GCCGAAAAUGUGAGGAUAUACCUAUGGAAACAUAGGUAGAAGGCACAUGAGGAUCACCCAUGUCCAAUAACGGC [Mat - Exclusion 4 - Eli Mod - D25] (Eterna round: R97, puzzle: Brourd's mod of Exclusion 4) | 664 nM | – | 287 nM | – | – | –
GCCGAAAGUGUGAGGAUAUACCUAUGGAAACAUAGGUAGAAGGCACAUGAGGAUCACCCAUGUGUCCAAACGGC [Mat - Exclusion 4 - Eli Mod - D23] (Eterna round: R97, puzzle: Brourd's mod of Exclusion 4) | 41.5 nM | – | 16.5 nM | – | – | –
